{
  "source": "paper PMC8421226",
  "about": "“Structural basis for glucocorticoid receptor recognition of both unmodified and methylated binding sites, precursors of a modern recognition element” (Nucleic Acids Research, 2021)",
  "molecules": {"B1": {"name": "5mC-GBS (dsDNA)", "DNA 1": "CCAGAACGGAGCGTTCTGA", "DNA 2": "TCAGAACGCTCCGTTCTGG", "modifications": "5mC at CpG; methyl at mC10 of AGAACGGAGCGTTCT (C12 of strand) seen in structure, other positions in Figure 3A"}, "B2": {"name": "5mC-GBS crystal DNA (dsDNA)", "DNA 1": "CCAGAACGGAGCGTTCTG", "DNA 2": "TCAGAACGCTCCGTTCTG", "modifications": "5mC at CpG (mC10)"}, "B3": {"name": "human glucocorticoid receptor DNA-binding domain (domain or fragment)", "chain": "PPKLCLVCSDEASGCHYGVLTCGSCKVFFKRAVEGQHNYLCAGRNDCIIDKIRRKNCPACRYRKCLQAGMNLEAR", "notes": "Cloned into the pMCSG7 vector; In the crystals two DBD copies sit on one DNA duplex (5mC-GBS or pre-GBS); also called GR DBD; GR; source: E. coli BL21 (DE3) pLysS, purified (His-Trap, gel filtration)"}, "B4": {"name": "GBS (dsDNA)", "DNA 1": "TGAGAACAGAGTGTTCTTT", "DNA 2": "AAAGAACACTCTGTTCTCA"}, "B5": {"name": "pre-GBS (dsDNA)", "DNA 1": "CCAGAACGGAGCGTTCTGA", "DNA 2": "TCAGAACGCTCCGTTCTG"}, "B6": {"name": "pre-GBS crystal DNA (dsDNA)", "DNA 1": "CCAGAACGGAGCGTTCTG", "DNA 2": "TCAGAACGCTCCGTTCTG"}},
  "key": {"[1]": {"test_system": "AncCR DBD (reconstructed ancestral)", "test": "fluorescence polarization", "conditions": "FP: 20 mM Tris-HCl pH 7.4, 150 mM NaCl, 5% glycerol, 10 nM FAM-DNA, 1 nM-50 uM DBD, temperature not stated"}, "[2]": {"test_system": "AncGR1 DBD (reconstructed ancestral)", "test": "fluorescence polarization", "conditions": "FP: 20 mM Tris-HCl pH 7.4, 150 mM NaCl, 5% glycerol, 10 nM FAM-DNA, 1 nM-50 uM DBD, temperature not stated"}, "[3]": {"test_system": "AncSR2 DBD (reconstructed ancestral)", "test": "fluorescence polarization", "conditions": "FP: 20 mM Tris-HCl pH 7.4, 150 mM NaCl, 5% glycerol, 10 nM FAM-DNA, 1 nM-50 uM DBD, temperature not stated"}, "GR DBD [4]": {"molecular_target": "T1, GR DBD (human, UniProt P04150 418-493)", "T1 sequence (P04150 418-493)": "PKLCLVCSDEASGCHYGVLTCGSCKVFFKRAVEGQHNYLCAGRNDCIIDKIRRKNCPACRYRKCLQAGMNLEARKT", "test": "fluorescence polarization; FP: 20 mM Tris-HCl pH 7.4, 150 mM NaCl, 5% glycerol; 10 nM FAM-DNA, 1 nM-50 uM DBD; temperature not stated", "conditions": "protein: recombinant, tags: 6xHis (pMCSG7 vector), chain copies: 2, label: 5' FAM on strand 1"}, "GR DBD [5]": {"molecular_target": "T1, GR DBD", "test": "X-ray crystallography (2.0 A); DBD dimer; FP: 20 mM Tris-HCl pH 7.4, 150 mM NaCl, 5% glycerol; 10 nM FAM-DNA, 1 nM-50 uM DBD; temperature not stated", "conditions": "protein: recombinant; tags: 6xHis (pMCSG7 vector); chain copies: 2"}, "[6]": {"molecular_target": "the molecule itself", "test": "crystal structure; GR DBD with 5mC-GBS or pre-GBS DNA duplex, 2:1 protein:DNA molar ratio; hanging drop vapor diffusion, 50 mM sodium cacodylate pH 6.5, 80 mM calcium chloride, 1% glycerol, 7% or 8.5% PEG 400; dimer of DBD on DNA in the asymmetric unit"}, "GR DBD [7]": {"molecular_target": "T1, GR DBD", "test": "X-ray crystallography (2.5 A); DBD dimer; FP: 20 mM Tris-HCl pH 7.4, 150 mM NaCl, 5% glycerol; 10 nM FAM-DNA, 1 nM-50 uM DBD; temperature not stated", "conditions": "protein: recombinant; tags: 6xHis (pMCSG7 vector); chain copies: 2"}, "[8]": {"conditions": "5mC at CpG, methyl at mC10 of AGAACGGAGCGTTCT (C12 of strand) seen in structure, other positions in Figure 3A"}},
  "data": [
    {"molecule": "CCAGAACGGAGCGTTCTGA (double strand) [5mC-GBS]", "values": [
      {"measurement": "Kd", "setting": "[1]; [8]", "value": 318, "unit": "nM"},
      {"measurement": "Kd", "setting": "[2]; [8]", "value": 78, "unit": "nM"},
      {"measurement": "Kd", "setting": "[3]; [8]", "value": 443, "unit": "nM"}
    ]},
    {"molecule": "CCAGAACGGAGCGTTCTGA / TCAGAACGCTCCGTTCTG [pre-GBS]", "values": [
      {"measurement": "Kd", "setting": "[1]", "value": 575, "unit": "nM"},
      {"measurement": "Kd", "setting": "[2]", "value": 139, "unit": "nM"},
      {"measurement": "Kd", "setting": "[3]", "value": 811, "unit": "nM"}
    ]},
    {"molecule": "B1", "values": [
      {"measurement": "Kd", "setting": "GR DBD [4]; blunt", "value": 131, "unit": "nM"}
    ]},
    {"molecule": "B2", "values": [
      {"measurement": "binding result", "setting": "GR DBD [5]", "value": "binds"}
    ]},
    {"molecule": "B3", "values": [
      {"measurement": "stoichiometry N", "setting": "[6]", "value": 2}
    ]},
    {"molecule": "B4", "values": [
      {"measurement": "Kd", "setting": "GR DBD [4]; blunt", "value": 73, "unit": "nM"}
    ]},
    {"molecule": "B5", "values": [
      {"measurement": "Kd", "setting": "GR DBD [4]; as printed the second strand lacks its 3' terminal G (5' overhang 1 nt on strand 1), possibly a misprint", "value": 206, "unit": "nM"}
    ]},
    {"molecule": "B6", "values": [
      {"measurement": "binding result", "setting": "GR DBD [7]", "value": "binds"}
    ]}
  ]
}
